assay: soluble fraction after stress (log2 fold change); higher = more stays soluble; pooled small domains, quantitative proteomics; details: stress: 50 degC
Procedure, shortened: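 Pooled custom libraries of small protein domains were measured in a high-throughput format, with quantitative proteomics as the read-out. Each library was stressed at 50°C. Aggregation propensity is given as the base-two logarithm of the fold change in how much of each protein stays soluble after the stress. Higher values mean a larger share of the protein remains in solution.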

Compared with “HMFELDELDLVILKNLANGLSKKQIRVKLKKMDLRPNSESAIDKRVSKLFDEFGAKNSTELVAKLIREGL”, “HMEDKIIVTVPGEYHLERIDRFLAANLEEDLSRSLIQRYIRENLITVNGEAVRANYKVKTDDEILITFPQ” is higher in “soluble fraction (log2)” value: -2.55 for the first, -0.603 for the second.

Compared with “HMSDPFSPTTTLKNRAKSVLSVDSFEDFKLFIKKMWQEKKEGVYQNPNVETWKDWDNISVKDAKILISLI”, “HMSKNIRQQFLDVLPKTFDRNQYLETAKKLSINAKTAEGYIKKFVEANLLDHPKHNHYINLKKVEEVETK” is higher in “soluble fraction (log2)” value: -0.474 for the first, 0.229 for the second.

First: HMEPKQIEVPNLVGISSAAARQTLSALGLHAVVKDSIWSETERIDTVLEQNPAGGALIKPEGTVYLRVSR
Second: HMNTIFSVNGPVVKVKDTKDFSMMEMVYVGEKKLIGEVIGITESFTTIQVYEVTTGLKVGEPVYTTGAPM
The “soluble fraction (log2)” value of the first is higher: 0.033 for the first, -0.38 for the second.

Going from “HMEFVEERRNRMLDYIGENKRADVPELARHFDVTEVTIRRDLLILEQDGKLIRTHGGAMINR” to “HMQQAVTMQKPGRLLRNADGNGGAVRDLDVGMMLYPTGNRSELMWEVDDELGNRGWVNSTLFGLS”, the “soluble fraction (log2)” value rises from -0.433 to -0.109.

First: HMGLAGVQSDVKVSFDGDLLVVTSDIARSFNLFAVDGRLIRSVNLIAGRNEIRGLERGFYLAEKQKIFV
Second: HMLKRLTVEFSAEMPKKMTSEQKEELASVLSEDPRPAYQNDENREYGLDYGEFSVKFKVKDGVLTVTSVTE
The “soluble fraction (log2)” value of the first is lower: -2.07 for the first, -0.0668 for the second.

First: HMAPPIQQQVESLMNSFAKIGVTVPMLESRLQHAMSAVTANELVMLRKIGASIRDGFATVAEQFPA
Second: HMKNTFGLTEREMEVLALIVDGLSNPEIAEKLFITRATAKAHVHSILQKLYVDDRTQAAVTAMREGL
The “soluble fraction (log2)” value of the first is higher: 0.0539 for the first, -1.23 for the second.

“HMEPELSVDMKPLDGLLLAIKKELQAAQMYTRLARASADAEQKMVFEQLANMEKGHKARLEDIYT” and “HMGPRPLPAEFTHPSLRALLALGTTRGGVTSADVKTALEAASVPAGRRAAVLRALDDNGIEVHTEP” are within 0.2 log units of each other in “soluble fraction (log2)” value: -0.0279 for the first, 0.0376 for the second.

First: HMESADEESNALMYDGLLAMRGKRYEVALEFFDALVKHDPDFAEGWNKRATVLYLLGRYERSIADIKQVLA
Second: HMEDPRVTEIKNLQQDLAKKFKPTQGPASASDAVERVTAITTVMTKVAALPEDLRSEAMQPGKKM
The “soluble fraction (log2)” value of the first is higher: -0.0654 for the first, -0.322 for the second.

“HMKKLPDDANDIIERVSSRLAQKFRFGYHTIDDMKQQAALFAWEGIYDSWDDSRPLENFLWIHVRNRLYN” and “HMYTEIDDVKDLLSKIPSVNKLTTADRGMVQAARNAYDALDEDQKLYITIADVEKFNAAVEWMEEH” are within 0.2 log units of each other in “soluble fraction (log2)” value: -0.00948 for the first, 0.0056 for the second.

First: HMEPREEFTFADLRANGLNGTAAAAGRRAALGAALGIGYGNAKQFLRRLNHYGVTRSEWEAALADLDE
Second: HMDEMEFQKYVDQNLKQKGISLTAEAKAELLLRLGGDTMLLHSAIEKLDLYGEKNLNLNDIKHLVSLNSDV
The “soluble fraction (log2)” value of the first is lower: -0.419 for the first, 0.229 for the second.

Going from “HMQADPYTVLGVLRDVTDGELKREYRKLVREHHPDALIAQGVPQEFVDIANNKLAVINAAYERIAKQRGL” to “HMAVQEDAGLAREDLPPEVQGLLQEREAARAAKDWGKSDALRRQLQDLGYAIKDTAQGMEIKRT”, the “soluble fraction (log2)” value rises from 0.00775 to 0.425.

“HMVSLPSPLAGKVVSLTVQAGQEVKEGDEIMVLEAMKMNTQVHAPSSGRILALRVQPGDQVEEGQTLVTMG” and “HMPDLKIGKDHRLAEYIETKIAEDGYSPGAVLGEIKAKGLEFETEISKPTLYSYIDKGIFLTITNKELPV” are within 0.2 log units of each other in “soluble fraction (log2)” value: 0.0826 for the first, 0.105 for the second.

Compared with “HMELPSDEHLDDISHLARIGHKKGLQEKIIQLEQQGLASAEFIQQLKTLTNNFQFEKIIQWVDSEL”, “HMDSPVEEWANRGLAYDPSLVTETMAKLYAKQGQIGLARKAFKRLALIYPEKSVYFAFQLKKLSNN” is lower in “soluble fraction (log2)” value: -0.0426 for the first, -1.63 for the second.

Going from “HMDFGHWAAHKLEQMSEYRLRHGEAVAIGIALDVLYSVRQGLLARPAAERILSLLERLGFTLFDPELKS” to “HMAVSSHAVKQRIRSLIQAEDPAAPLSDEALRLALSALGVDVSRRVIAKYRAELNIPSSSQRKK”, the “soluble fraction (log2)” value rises from -0.213 to 0.045.

First: HMQTNEAIINQAVQAAEAQNITTRSQAVDALKANGMTEAQARQLAVQRGISYDQLINELFPME
Second: HMDAPKTGSLVVSKAVNYGSWSGFTFRLHGTSDKGNSVDVTATTGSDGKAYFKDIEIGTYTLEEVN
The “soluble fraction (log2)” value of the first is higher: -0.0275 for the first, -0.387 for the second.

First: HMGPVDFYQMFISELQHLAEKPVTVDALIESTQLHKSQLTEWLKRAVDDGVVKKLNRPARFQVKNK
Second: HMGMTTSILDDVIGMGPKRKKALLKAFGSFGALRNATLEEIKQTHTVPEQVAEDVYAVLVQYNSKSE
The “soluble fraction (log2)” value of the first is higher: -0.029 for the first, -0.233 for the second.

Compared with “HMEEKEIGQTLSVKIRENVLSKLDMTRDLEDEEVKHIIEHEIWLAAKKHYISLEERNSIKRGIFNSL”, “HMKTNQINVSGLSKEKNFEVLESLDVYKFYNLFFLNKIKIDQLINSYNHIDNYSVFKKYPSSLIVKLSE” is higher in “soluble fraction (log2)” value: -0.573 for the first, 0.0996 for the second.

First: HMSSYMQMQLERLESLLQKNDLTDSDKYDIRQLVEDLDKVPESVSPNLVGAYMTIKNRYASVLKTVL
Second: HMETQAGELQDAIRDAIAALPPRTREVFLMSRERNLRYGEIAEALGISVKAVEANMSRALRQLREKLSPFL
The “soluble fraction (log2)” value of the first is higher: 0.501 for the first, -0.454 for the second.

Going from “HMLKPQQTQRIYAMAARLGVLESGNKNDMLHTIVYRLTQKESIRSLNENEYKTVVSELAERLKL” to “HMKNLKPSTEVILKELVKRYPDQTEFRKQQIVDVGQSFGYKGKDYGPIFDADNRVKIGTYDLAGLIVPLQR”, the “soluble fraction (log2)” value rises from -0.97 to -0.0461.

Source: the domain aggregation screens of Martell et al. (2025)
